Assay results from patent US20200055896A1, “SUBSTRATES RECOGNIZED BY FIBROBLAST ACTIVATION PROTEIN (FAP) AND METHODS OF USING THE SAME” (GENENTECH, INC., priority 2017, published 2020).
No end group written: not given here.

Experiments:
[1] = target: T1, recombinant mouse FAP (Mus musculus, UniProt P97321); experiment: FRET-quench assay: probe cleavage by recombinant mouse FAP; assay type: biochemical; conditions: 1 nM recombinant mouse FAP; 3 μM peptide
T1 construct: (residues L26-D760 and L26-D761, respectively); octa-His (N); made in house; host or cells: transiently transfected CHO cells (conditioned media)
T1 sequence (P97321 26-761): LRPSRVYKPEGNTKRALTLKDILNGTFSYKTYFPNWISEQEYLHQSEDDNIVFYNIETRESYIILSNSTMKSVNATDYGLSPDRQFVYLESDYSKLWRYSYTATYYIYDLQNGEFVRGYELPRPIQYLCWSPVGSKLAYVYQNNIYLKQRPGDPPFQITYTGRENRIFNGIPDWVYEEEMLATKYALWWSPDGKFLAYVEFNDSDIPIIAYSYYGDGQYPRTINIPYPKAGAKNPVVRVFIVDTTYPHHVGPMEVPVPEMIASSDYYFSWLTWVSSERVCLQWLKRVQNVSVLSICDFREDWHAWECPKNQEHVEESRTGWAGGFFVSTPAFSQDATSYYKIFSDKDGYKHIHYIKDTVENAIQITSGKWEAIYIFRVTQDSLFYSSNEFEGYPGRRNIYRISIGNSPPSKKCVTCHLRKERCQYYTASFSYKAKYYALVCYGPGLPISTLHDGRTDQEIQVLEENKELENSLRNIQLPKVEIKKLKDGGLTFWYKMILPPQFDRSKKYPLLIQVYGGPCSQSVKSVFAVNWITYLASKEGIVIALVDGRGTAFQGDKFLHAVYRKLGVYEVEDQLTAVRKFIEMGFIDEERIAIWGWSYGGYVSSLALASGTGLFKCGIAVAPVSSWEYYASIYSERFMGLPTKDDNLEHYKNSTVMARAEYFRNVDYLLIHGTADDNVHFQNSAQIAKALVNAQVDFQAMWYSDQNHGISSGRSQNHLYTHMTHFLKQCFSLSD
Source text: (§1) Human prolyl oligopeptidase (PREP, 4308-SE), DPPIV (1180-SE), DPP9 (5419-SE), and DPPII/DPP7 (3438-SE) proteins were purchased from R&D Systems. Human DPP8 (BML-SE527) protein was purchased from Enzo Life Sciences. N-terminal octa-His-tagged human and mouse FAP proteins containing the extracellular domain (residues L26-D760 and L26-D761, respectively) were purified from the conditioned media of transiently-transfected CHO cells, by immobilized metal affinity chromatography (IMAC), followed by size exclusion chromatography (SEC).
Peptides of the region flanking the C-terminal human FGF21 cleavage site (VGPSQG) or a variant with D-alanine at P2 (VaPSQG) were synthesized (Anaspec, Inc.), containing an amine-terminal donor (HyLite Fluor 488 or Cy5.5 for aP NIRF) and a dark quencher-acceptor (QXL 520 or QSY21 for aP NIRF) conjugated to a supplementary C-terminal lysine. ANPFAP (Bioconjugate Chem 23:1704-11) and aP NIRF were synthesized by CPC Scientific (Sunnyvale, Calif.). Assays were conducted at 37° C. in 50 mM HEPES (pH 7.2), 150 mM NaCl, 1 mM EDTA, 0.1 mg/ml BSA. The excitation/emission wavelengths of cleaved peptide are 490/520 nm or 675/695 nm for ANPFAP and aP NIRF. Fluorescence was monitored on a Tecan M1000 Pro plate reader in kinetic mode. […]

[2] = target: T2, recombinant human FAP (Homo sapiens, UniProt Q12884); experiment: FRET-quench assay: probe cleavage by recombinant human FAP; assay type: biochemical; conditions: 1 nM enzyme
T2 construct: (residues L26-D760 and L26-D761, respectively); octa-His (N); made in house; host or cells: transiently transfected CHO cells (conditioned media)
T2 sequence (Q12884 26-760): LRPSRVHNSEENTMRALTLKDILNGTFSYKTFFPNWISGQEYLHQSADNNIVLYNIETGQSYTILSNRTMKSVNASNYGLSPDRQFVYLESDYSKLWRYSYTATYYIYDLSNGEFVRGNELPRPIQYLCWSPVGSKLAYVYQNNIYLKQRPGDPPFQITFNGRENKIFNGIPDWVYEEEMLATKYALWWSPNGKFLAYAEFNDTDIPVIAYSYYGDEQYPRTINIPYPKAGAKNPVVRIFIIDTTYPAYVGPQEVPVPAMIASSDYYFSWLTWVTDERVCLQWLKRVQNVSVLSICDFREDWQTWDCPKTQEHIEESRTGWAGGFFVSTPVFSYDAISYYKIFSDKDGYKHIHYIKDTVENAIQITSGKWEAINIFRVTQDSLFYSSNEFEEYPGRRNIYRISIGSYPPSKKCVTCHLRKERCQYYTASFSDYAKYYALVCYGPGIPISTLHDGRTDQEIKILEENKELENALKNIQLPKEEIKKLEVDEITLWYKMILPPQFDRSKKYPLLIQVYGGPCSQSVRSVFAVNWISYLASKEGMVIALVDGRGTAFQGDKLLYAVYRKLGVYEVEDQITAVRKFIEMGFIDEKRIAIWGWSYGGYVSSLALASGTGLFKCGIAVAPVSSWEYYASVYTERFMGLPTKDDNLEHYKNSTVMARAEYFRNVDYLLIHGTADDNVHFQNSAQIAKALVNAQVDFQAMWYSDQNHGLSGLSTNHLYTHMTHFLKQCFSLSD
Source text: as §1
Peptides of the region flanking the C-terminal human FGF21 cleavage site (VGPSQG) or a variant with D-alanine at P2 (VaPSQG) were synthesized (Anaspec, Inc.), containing an amine-terminal donor (HyLite Fluor 488 or Cy5.5 for aP NIRF) and a dark quencher-acceptor (QXL 520 or QSY21 for aP NIRF) conjugated to a supplementary C-terminal lysine. ANPFAP (Bioconjugate Chem 23:1704-11) and aP NIRF were synthesized by CPC Scientific (Sunnyvale, Calif.). Assays were conducted at 37° C. in 50 mM HEPES (pH 7.2), 150 mM NaCl, 1 mM EDTA, 0.1 mg/ml BSA. The excitation/emission wavelengths of cleaved peptide are 490/520 nm or 675/695 nm for ANPFAP and aP NIRF. Fluorescence was monitored on a Tecan M1000 Pro plate reader in kinetic mode. Except where indicated otherwise, measurements of serum or plasma FAP activity were performed with the peptide substrate concentration at 6 μM and a 10-fold dilution of serum or plasma in assay buffer.

cleavage by recombinant mouse FAP [1] | Substance | cleavage by recombinant human FAP [2]
cleaved | GP probe: human FGF21 cleavage-site peptide VGPSQG with amine-terminal HyLite Fluor 488 donor and QXL 520 quencher on supplementary C-terminal lysine ({HyLite Fluor 488}-VGPSQGK(QXL 520)) | readily cleaved
 | aP probe: FGF21-based peptide VaPSQG (D-alanine at P2) with HyLite Fluor 488 donor and QXL 520 quencher | clearly detectable
